From US20230399384A1 (University of Texas, published 2023)
Like-named read-outs stand apart in the source and are kept apart here.

Legend:
[1] = biological target: T1, sCoV-RBD (Fc-tagged RBD of SARS-CoV S protein) (SARS-CoV; human, UniProt P59594 306-527); experiment: BLI (Octet) blocking of ACE2 binding to sCoV-RBD
S protein of MERS-CoV = biological target: T2, S protein of MERS-CoV (MERS-CoV, UniProt K9N5Q8 18-1296); experiment: BLI kinetic binding (FIG. 28D)
T2 sequence: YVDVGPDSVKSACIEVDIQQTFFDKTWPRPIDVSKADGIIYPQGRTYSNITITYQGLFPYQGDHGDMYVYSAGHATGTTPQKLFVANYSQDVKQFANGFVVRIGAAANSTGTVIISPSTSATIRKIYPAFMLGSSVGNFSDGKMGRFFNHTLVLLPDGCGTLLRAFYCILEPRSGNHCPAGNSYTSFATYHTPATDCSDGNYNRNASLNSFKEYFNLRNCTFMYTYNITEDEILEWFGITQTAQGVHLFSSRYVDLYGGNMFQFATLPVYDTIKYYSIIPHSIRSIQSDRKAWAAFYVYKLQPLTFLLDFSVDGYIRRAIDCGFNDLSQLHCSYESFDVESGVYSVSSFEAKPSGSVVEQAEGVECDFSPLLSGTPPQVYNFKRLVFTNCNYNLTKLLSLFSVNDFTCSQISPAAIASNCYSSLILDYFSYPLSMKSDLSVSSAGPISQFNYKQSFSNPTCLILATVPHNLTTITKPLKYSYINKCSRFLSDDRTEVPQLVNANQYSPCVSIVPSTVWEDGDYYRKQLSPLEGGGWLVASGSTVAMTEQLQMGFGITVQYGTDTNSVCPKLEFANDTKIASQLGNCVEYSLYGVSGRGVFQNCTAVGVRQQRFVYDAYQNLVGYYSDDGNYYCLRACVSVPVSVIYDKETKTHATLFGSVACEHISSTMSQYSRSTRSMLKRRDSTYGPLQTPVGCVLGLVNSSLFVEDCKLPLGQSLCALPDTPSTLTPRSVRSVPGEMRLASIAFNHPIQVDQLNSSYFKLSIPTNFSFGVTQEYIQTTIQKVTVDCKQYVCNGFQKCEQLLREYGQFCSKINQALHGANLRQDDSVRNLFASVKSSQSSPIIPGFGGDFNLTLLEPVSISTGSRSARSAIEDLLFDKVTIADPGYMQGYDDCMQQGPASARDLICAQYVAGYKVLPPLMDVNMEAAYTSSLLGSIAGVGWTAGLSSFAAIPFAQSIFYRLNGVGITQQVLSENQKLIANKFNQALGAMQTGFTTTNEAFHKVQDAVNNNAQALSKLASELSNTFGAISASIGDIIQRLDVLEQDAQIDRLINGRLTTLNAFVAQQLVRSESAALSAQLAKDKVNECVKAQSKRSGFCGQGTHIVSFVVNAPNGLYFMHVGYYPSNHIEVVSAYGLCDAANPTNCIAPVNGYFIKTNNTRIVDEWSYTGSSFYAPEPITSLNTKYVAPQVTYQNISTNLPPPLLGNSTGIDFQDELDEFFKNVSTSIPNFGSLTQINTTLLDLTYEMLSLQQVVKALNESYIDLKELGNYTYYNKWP

[2] = biological target: T3, sCoV2-RBD (Fc-tagged RBD of SARS-CoV-2 S protein) (SARS-CoV-2; human, UniProt P0DTC2 319-541); experiment: BLI (Octet) blocking of ACE2 binding to captured sCoV2-RBD
S protein of SARS-CoV = S protein of SARS-CoV (SARS-CoV, UniProt P59594 14-1195)
[3] = biological target: trimeric prefusion S protein of SARS-CoV-2 (SARS-CoV-2, UniProt P0DTC2 14-1208)
[4] = biological target: T3, sCoV2-RBD (Fc-tagged RBD of SARS-CoV-2 …)
[5] = biological target: T1, sCoV-RBD (Fc-tagged RBD of SARS-CoV S …)
[6] = biological target: SARS-CoV-2 S protein on live SARS-CoV-2-mNG reporter virus (SARS-CoV-2, UniProt P0DTC2 14-1273); experiment: cell-based or functional assay
[7] = biological target: T3, sCoV2-RBD (Fc-tagged RBD of SARS-CoV-2 …); experiment: ELISA titration on coated sCoV2-RBD

B1: CoV2-12 (antibody, V domains shown)
VH: QVQLVESGGGVVQPGRSLRLSCVASGFTFSSYAMQWVRQAPGKGLEYVAVVSDDGNMKFYADSVKGRFTISRDNSRNTVSLQMNSLGVEDTAVYYCARENYFWSGSIGGLDYWGQGTLVSVSS
VL: not shown
IC50 [1]: 1.71 mg/L | binding result (S protein of MERS-CoV): no binding | IC50 [2]: 2.13 mg/L | Kd (S protein of SARS-CoV): 9.95 nM | Kd [3]: 10.7 nM | EC50 [4]: 0.89 nM | EC50 [5]: 3.51 nM | NC50 (neutralisation of reporter SARS-CoV-2, Vero E6 cells) [6]: 18.2 µg/mL | EC50 [7]: 2.11 nM
